# In publication PMC2810632 (Neuron, 2009):
# B1: Rat p75 neurotrophin receptor (p75^NTR), wild type, N-terminal HA tag (receptor, UniProt P07174 30-425, looked up)
# chain: KETCSTGLYTHSGECCKACNLGEGVAQPCGANQTVCEPCLDNVTFSDVVSATEPCKPCTECLGLQSMSAPCVEADDAVCRCAYGYYQDEETGHCEACSVCEVGSGLVFSCQDKQNTVCEECPEGTYSDEANHVDPCLPCTVCEDTERQLRECTPWADAECEEIPGRWIPRSTPPEGSDSTAPSTQEPEVPPEQDLVPSTVADMVTTVMGSSQPVVTRGTTDNLIPVYCSILAAVVVGLVAYIAFKRWNSCKQNKQGANSRPVNQTPPPEGEKLHSDSGISVDSQSLHDQQTHTQTASGQALKGDGNLYSSLPLTKREEVEKLLNGDTWRHLAGELGYQPEHIDSFTHEACPVRALLASWGAQDSATLDALLAALRRIQRADIVESLCSESTATSPV
# B2: Endogenous rat p75^NTR (receptor, UniProt P07174 30-425, looked up)
# chain: B1 chain
# Target: the molecule itself
# Assay: non-reducing SDS-PAGE of immunoprecipitates
row,Protein,stoichiometry N
1,B1,2
2,B2,2
